According to patent US9988424 (DUKE UNIVERSITY, dated 2018):
Read-outs that look alike come from different tables or passages of the source.

How the values were obtained:
Assay in all cases: ELISA, OD405 at 10 ug/ml
[1] = molecular target: T1, A.9004SS V1/V2 tags
T1 V1V2 tags construct: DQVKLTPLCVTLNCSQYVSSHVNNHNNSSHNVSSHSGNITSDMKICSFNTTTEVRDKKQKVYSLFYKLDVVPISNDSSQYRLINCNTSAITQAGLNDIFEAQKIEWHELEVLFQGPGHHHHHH

[2] = molecular target: AE.con gp140CF
[3] = molecular target: B.040 gp140C
[4] = molecular target: T2, B.62357 gp140C
T2 construct: also called B.62357 140C

[5] = molecular target: B.con gp140CF
[6] = molecular target: T3, C.1086 gp140
T3 construct: also called C.1086gp140C

[7] = molecular target: Con 6 gp120
[8] = molecular target: G.con gp140CF
[9] = molecular target: C.CAP206 gp140CF.12 (HIV-1)
[10] = molecular target: T4, gp70 B.CaseA2 V1/V2 (HIV-1 V1V2 on murine leukemia virus gp70)
T4 construct: also called B.gp70CaseA2 V1/V2; gp70 B.CaseAV1V2
T4 chain: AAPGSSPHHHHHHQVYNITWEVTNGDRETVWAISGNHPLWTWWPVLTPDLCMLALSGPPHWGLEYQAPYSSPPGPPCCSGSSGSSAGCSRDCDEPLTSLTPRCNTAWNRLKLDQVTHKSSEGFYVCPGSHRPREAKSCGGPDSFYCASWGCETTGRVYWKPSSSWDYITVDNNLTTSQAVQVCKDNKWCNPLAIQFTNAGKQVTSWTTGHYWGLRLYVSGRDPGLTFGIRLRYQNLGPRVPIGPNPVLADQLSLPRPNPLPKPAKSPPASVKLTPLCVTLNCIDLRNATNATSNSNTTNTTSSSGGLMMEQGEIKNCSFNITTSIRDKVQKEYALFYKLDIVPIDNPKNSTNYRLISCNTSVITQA

[11] = molecular target: T5, gp70 C.1086 V1/V2 (HIV-1 V1V2 on murine leukemia virus gp70)
T5 construct: also called C.gp70 1086C V1V2; C.1086gp70V1V2
T5 chain: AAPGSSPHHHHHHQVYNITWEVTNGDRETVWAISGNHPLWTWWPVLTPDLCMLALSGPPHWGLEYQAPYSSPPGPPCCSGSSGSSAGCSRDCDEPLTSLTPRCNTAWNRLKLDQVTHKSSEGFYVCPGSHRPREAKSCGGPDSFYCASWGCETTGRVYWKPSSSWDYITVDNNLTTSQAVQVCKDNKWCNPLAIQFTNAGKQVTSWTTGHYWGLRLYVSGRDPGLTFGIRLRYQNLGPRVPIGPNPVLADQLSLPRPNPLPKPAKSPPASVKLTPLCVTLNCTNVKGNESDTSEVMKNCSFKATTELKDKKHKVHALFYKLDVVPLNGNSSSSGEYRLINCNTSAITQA

[12] = molecular target: T6, AE.97CNG2XF gp140CF (HIV-1)
T6 construct: also called E.97CNGX2F gp140CF

[13] = molecular target: T7, B.HXB/BAL gp140CFI (HIV-1, UniProt P04578 33-680)
T7 construct: also called B.HxB/Ba gp140 CFI

[14] = molecular target: B.9021 gp140C (HIV-1)
[15] = molecular target: T8, SIV CPZ US-1 gp140CF (SIVcpz)
T8 construct: also called US-1 SIVCPZ gp140CF
T8 chain: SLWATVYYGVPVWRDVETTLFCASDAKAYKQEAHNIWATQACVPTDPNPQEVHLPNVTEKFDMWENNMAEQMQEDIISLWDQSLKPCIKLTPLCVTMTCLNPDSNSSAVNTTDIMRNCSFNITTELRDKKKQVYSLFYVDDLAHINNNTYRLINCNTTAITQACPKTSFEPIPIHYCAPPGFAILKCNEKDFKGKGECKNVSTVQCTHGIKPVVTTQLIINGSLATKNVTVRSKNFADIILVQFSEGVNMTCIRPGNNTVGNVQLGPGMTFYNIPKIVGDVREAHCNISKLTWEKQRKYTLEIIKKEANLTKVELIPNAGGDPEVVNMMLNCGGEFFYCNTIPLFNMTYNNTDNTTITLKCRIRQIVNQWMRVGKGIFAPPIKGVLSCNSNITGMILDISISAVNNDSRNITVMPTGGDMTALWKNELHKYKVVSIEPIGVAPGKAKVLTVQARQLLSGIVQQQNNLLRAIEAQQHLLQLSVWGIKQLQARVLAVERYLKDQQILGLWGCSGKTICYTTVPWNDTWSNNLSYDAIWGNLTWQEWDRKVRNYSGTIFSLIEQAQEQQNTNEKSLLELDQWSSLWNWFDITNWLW

[16] = molecular target: T1, A.9004SS V1/V2 tags
[17] = molecular target: AE.con gp140CF; remark: listed apart in the source
[18] = molecular target: B.040 gp140C; remark: listed apart in the source
[19] = molecular target: T2, B.62357 gp140C; remark: listed apart in the source
[20] = molecular target: B.con gp140CF; remark: listed apart in the source
[21] = molecular target: T3, C.1086 gp140; remark: listed apart in the source
[22] = molecular target: Con 6 gp120; remark: listed apart in the source
[23] = molecular target: G.con gp140CF; remark: listed apart in the source
[24] = molecular target: C.CAP206 gp140CF.12 (HIV-1); remark: listed apart in the source
[25] = molecular target: T4, gp70 B.CaseA2 V1/V2
[26] = molecular target: T5, gp70 C.1086 V1/V2
[27] = molecular target: T6, AE.97CNG2XF gp140CF; remark: listed apart in the source
[28] = molecular target: T7, B.HXB/BAL gp140CFI; remark: listed apart in the source
[29] = molecular target: T8, SIV CPZ US-1 gp140CF

Measured: binding result

B1: CH01_UA1 (antibody, V domains shown)
VH: EVQLVESGGGVVRPGGSLRLSCAASGFTFDDYGMSWVRQAPGKGLEWVSGINWNGGSTGYADSVKGRFTISRDNAKNSLYLQMNSLRAEDTALYYCARGTDYTIDDQGIRYQGSGTFWYFDLWGRGTLVTVSS
VL: not shown
no binding (tested: 10 ug/ml): [1] | [2] | [3] | [4] | [5] | [6] | [7] | [8] | [9] | [10] | [11] | [12] | [13] | [14] | [15]

B2: CH01_UA2 (antibody, V domains shown)
VH: EVQLVESGGGVVRPGGSLRLSCAASGFTFDDYGMSWVRQAPGKGLEWVSGINWNGGSTGYADSVKGRFTISRDNAKNSLYLQMNSLRAEDTALYYCARGTDYTIDDQGILYQGSGTFWYFDLWGRGTLVTVSS
VL: not shown
no binding (tested: 10 ug/ml): [16] | [17] | [18] | [19] | [20] | [21] | [22] | [23] | [24] | [25] | [26] | [27] | [28] | [29]
